Laboratory results published in publication PMC11549370, “Two distinct regulatory pathways govern Cct2-Atg8 binding in the process of solid aggrephagy” (EMBO Reports, 2024).
Blank lines part the entries; values can stand above or below the molecule they belong to.

Key:
LC3C = LC3C (UniProt Q9BXW4); test: anti-FLAG co-IP, anti-HA blot; settings: reference: HA-CCT2 wild type; sites S458
Atg11 = Atg11 (UniProt Q12527); test: anti-FLAG co-IP, anti-HA blot; settings: reference: wild-type 3×HA-Cct2; sites S412,S470
[1] = target: T1, GST-Cct2 S412A-S470A (2A) (S. cerevisiae, UniProt P39076 1-527, S412A | S470A); test: pull-down; in vitro GST pulldown: GST-tagged protein on GST beads, prey added in binding buffer B (1 mM EDTA, 1 mM EGTA, 150 mM NaCl, 1% Triton X-100 in 1×PBS), 3 h, 4 °C; SDS-PAGE, Coomassie staining; settings: both partners purified
T1 construct: Cct2, S. cerevisiae; also called Cct2-2A mutant protein; pGEX-4T-1-Cct2 S412A-S470A(2A); source: E. coli, purified; not shown: GST, N-terminal, kept

GST-Cct2 = target: T2, GST-Cct2 (S. cerevisiae, UniProt P39076 1-527); test: as above; settings: both partners purified
T2 construct: Cct2, subunit of the TRiC complex, S. cerevisiae; the CCT2 gene cloned into pGEX-4T-1; also called WT GST-Cct2; pGEX-4T-1-Cct2; source: E. coli, purified; not shown: GST, N-terminal, kept

GST-Cct2 D473A = target: T3, GST-Cct2 D473A (S. cerevisiae, UniProt P39076 1-527, D473A); test: as above; settings: both partners purified
T3 construct: Cct2, S. cerevisiae; also called pGEX-4T-1-Cct2 D473A; source: E. coli, purified; not shown: GST, N-terminal, kept

GST-Cct2 I487E = target: T4, GST-Cct2 I487E (S. cerevisiae, UniProt P39076 1-527, I487E); test: as above; settings: both partners purified
T4 construct: Cct2, S. cerevisiae; also called pGEX-4T-1-Cct2 I487E; source: E. coli, purified; not shown: GST, N-terminal, kept

[2] = target: T5, GST-Cct2 phosphorylated in vitro by Atg1 (S. cerevisiae, UniProt P39076 1-527, phosphorylated by Atg1; the paper maps the sites to S412 and S470); test: pull-down; GST-Cct2 first incubated with Atg1-3×FLAG and ATP (30 °C, 30 min), enriched on GST beads, then His-Atg8 or Atg11 CC4 added in interaction buffer (1 mM EDTA, 1 mM EGTA, 150 mM NaCl, 1% Triton X-100 in 1×PBS), 2 h, 4 °C; Coomassie staining; settings: both partners purified
T5 construct: Cct2, S. cerevisiae; also called phosphorylated GST-Cct2 WT; phosphorylated products; source: E. coli, purified, then incubated with WT Atg1-3×FLAG (from yeast) and ATP and enriched on GST beads; not shown: GST, N-terminal, kept
T5 sequence (P39076 whole entry): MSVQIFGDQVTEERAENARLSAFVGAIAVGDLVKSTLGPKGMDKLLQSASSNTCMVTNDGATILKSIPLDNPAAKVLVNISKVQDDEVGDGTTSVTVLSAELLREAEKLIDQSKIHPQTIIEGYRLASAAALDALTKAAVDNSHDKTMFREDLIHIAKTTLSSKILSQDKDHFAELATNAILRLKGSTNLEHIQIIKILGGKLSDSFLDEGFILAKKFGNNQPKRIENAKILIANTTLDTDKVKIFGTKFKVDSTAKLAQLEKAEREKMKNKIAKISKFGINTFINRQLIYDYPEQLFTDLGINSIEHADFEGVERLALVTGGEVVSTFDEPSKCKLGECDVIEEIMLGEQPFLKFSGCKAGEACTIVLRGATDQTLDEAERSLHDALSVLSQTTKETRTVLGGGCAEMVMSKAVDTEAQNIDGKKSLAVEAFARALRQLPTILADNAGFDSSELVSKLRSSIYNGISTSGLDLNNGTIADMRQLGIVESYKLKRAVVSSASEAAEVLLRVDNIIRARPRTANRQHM

T3 sequence (P39076 whole entry D473A): as the sequence (P39076 whole entry) above, with D473A counted along it
T2 sequence (P39076 whole entry): as the sequence (P39076 whole entry) above
T4 sequence (P39076 whole entry I487E): as the sequence (P39076 whole entry) above, with I487E counted along it
T1 sequence (P39076 whole entry S412A/S470A): as the sequence (P39076 whole entry) above, with S412A, S470A counted along it

binding against the reference (LC3C): weaker
Molecule: CCT2 (hCCT2) (from UniProt P78371) HA-CCT2 S458A

binding against the reference (Atg11): weaker
Molecule: Cct2 (from UniProt P39076) 3×HA-Cct2 S412A-S470A

binding result [1]: binds
binding result (GST-Cct2): binds
binding result (GST-Cct2 D473A): binds
binding result (GST-Cct2 I487E): binds
binding result [2]: binds
B1: His-Atg8 (natural protein, S. cerevisiae, UniProt P38182 1-117, looked up)
chain: MKSTFKSEYPFEKRKAESERIADRFKNRIPVICEKAEKSDIPEIDKRKYLVPADLTVGQFVYVIRKRIMLPPEKAIFIFVNDTLPPTAALMSAIYQEHKDKDGFLYVTYSGENTFGR
notes: Atg8, S. cerevisiae; source: E. coli, purified; not shown: His, N-terminal, kept
